For one substance, Y586通道PE荧光值 results are on record in patent CN114106174A.

For the assay, the target named is OX40 on OX40-overexpressing cells (OX40过表达细胞表面OX40) (UniProt P43489). Put plainly: flow cytometry, positive control at 1 microgram/ml on OX40-overexpressing cells, goat anti-mouse IgG-PE.
UniProt P43489, sequence (P43489 29-277 limits assumed): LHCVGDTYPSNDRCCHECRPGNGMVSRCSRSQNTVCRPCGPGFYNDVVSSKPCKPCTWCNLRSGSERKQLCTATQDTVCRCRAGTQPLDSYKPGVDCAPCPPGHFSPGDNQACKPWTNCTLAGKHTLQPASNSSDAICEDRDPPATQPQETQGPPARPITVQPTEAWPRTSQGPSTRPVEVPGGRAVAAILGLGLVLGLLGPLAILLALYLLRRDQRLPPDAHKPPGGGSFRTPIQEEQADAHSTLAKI

As for “抗-OX40抗体 (clone ACT35, Biolegend) (antibody)”, the Y586通道PE荧光值 turned out to be 210000.
